From patent US20250025478

Sequence of 3×-FLAG-RNF213^Y1275F (chain, as listed by the source Y1275F): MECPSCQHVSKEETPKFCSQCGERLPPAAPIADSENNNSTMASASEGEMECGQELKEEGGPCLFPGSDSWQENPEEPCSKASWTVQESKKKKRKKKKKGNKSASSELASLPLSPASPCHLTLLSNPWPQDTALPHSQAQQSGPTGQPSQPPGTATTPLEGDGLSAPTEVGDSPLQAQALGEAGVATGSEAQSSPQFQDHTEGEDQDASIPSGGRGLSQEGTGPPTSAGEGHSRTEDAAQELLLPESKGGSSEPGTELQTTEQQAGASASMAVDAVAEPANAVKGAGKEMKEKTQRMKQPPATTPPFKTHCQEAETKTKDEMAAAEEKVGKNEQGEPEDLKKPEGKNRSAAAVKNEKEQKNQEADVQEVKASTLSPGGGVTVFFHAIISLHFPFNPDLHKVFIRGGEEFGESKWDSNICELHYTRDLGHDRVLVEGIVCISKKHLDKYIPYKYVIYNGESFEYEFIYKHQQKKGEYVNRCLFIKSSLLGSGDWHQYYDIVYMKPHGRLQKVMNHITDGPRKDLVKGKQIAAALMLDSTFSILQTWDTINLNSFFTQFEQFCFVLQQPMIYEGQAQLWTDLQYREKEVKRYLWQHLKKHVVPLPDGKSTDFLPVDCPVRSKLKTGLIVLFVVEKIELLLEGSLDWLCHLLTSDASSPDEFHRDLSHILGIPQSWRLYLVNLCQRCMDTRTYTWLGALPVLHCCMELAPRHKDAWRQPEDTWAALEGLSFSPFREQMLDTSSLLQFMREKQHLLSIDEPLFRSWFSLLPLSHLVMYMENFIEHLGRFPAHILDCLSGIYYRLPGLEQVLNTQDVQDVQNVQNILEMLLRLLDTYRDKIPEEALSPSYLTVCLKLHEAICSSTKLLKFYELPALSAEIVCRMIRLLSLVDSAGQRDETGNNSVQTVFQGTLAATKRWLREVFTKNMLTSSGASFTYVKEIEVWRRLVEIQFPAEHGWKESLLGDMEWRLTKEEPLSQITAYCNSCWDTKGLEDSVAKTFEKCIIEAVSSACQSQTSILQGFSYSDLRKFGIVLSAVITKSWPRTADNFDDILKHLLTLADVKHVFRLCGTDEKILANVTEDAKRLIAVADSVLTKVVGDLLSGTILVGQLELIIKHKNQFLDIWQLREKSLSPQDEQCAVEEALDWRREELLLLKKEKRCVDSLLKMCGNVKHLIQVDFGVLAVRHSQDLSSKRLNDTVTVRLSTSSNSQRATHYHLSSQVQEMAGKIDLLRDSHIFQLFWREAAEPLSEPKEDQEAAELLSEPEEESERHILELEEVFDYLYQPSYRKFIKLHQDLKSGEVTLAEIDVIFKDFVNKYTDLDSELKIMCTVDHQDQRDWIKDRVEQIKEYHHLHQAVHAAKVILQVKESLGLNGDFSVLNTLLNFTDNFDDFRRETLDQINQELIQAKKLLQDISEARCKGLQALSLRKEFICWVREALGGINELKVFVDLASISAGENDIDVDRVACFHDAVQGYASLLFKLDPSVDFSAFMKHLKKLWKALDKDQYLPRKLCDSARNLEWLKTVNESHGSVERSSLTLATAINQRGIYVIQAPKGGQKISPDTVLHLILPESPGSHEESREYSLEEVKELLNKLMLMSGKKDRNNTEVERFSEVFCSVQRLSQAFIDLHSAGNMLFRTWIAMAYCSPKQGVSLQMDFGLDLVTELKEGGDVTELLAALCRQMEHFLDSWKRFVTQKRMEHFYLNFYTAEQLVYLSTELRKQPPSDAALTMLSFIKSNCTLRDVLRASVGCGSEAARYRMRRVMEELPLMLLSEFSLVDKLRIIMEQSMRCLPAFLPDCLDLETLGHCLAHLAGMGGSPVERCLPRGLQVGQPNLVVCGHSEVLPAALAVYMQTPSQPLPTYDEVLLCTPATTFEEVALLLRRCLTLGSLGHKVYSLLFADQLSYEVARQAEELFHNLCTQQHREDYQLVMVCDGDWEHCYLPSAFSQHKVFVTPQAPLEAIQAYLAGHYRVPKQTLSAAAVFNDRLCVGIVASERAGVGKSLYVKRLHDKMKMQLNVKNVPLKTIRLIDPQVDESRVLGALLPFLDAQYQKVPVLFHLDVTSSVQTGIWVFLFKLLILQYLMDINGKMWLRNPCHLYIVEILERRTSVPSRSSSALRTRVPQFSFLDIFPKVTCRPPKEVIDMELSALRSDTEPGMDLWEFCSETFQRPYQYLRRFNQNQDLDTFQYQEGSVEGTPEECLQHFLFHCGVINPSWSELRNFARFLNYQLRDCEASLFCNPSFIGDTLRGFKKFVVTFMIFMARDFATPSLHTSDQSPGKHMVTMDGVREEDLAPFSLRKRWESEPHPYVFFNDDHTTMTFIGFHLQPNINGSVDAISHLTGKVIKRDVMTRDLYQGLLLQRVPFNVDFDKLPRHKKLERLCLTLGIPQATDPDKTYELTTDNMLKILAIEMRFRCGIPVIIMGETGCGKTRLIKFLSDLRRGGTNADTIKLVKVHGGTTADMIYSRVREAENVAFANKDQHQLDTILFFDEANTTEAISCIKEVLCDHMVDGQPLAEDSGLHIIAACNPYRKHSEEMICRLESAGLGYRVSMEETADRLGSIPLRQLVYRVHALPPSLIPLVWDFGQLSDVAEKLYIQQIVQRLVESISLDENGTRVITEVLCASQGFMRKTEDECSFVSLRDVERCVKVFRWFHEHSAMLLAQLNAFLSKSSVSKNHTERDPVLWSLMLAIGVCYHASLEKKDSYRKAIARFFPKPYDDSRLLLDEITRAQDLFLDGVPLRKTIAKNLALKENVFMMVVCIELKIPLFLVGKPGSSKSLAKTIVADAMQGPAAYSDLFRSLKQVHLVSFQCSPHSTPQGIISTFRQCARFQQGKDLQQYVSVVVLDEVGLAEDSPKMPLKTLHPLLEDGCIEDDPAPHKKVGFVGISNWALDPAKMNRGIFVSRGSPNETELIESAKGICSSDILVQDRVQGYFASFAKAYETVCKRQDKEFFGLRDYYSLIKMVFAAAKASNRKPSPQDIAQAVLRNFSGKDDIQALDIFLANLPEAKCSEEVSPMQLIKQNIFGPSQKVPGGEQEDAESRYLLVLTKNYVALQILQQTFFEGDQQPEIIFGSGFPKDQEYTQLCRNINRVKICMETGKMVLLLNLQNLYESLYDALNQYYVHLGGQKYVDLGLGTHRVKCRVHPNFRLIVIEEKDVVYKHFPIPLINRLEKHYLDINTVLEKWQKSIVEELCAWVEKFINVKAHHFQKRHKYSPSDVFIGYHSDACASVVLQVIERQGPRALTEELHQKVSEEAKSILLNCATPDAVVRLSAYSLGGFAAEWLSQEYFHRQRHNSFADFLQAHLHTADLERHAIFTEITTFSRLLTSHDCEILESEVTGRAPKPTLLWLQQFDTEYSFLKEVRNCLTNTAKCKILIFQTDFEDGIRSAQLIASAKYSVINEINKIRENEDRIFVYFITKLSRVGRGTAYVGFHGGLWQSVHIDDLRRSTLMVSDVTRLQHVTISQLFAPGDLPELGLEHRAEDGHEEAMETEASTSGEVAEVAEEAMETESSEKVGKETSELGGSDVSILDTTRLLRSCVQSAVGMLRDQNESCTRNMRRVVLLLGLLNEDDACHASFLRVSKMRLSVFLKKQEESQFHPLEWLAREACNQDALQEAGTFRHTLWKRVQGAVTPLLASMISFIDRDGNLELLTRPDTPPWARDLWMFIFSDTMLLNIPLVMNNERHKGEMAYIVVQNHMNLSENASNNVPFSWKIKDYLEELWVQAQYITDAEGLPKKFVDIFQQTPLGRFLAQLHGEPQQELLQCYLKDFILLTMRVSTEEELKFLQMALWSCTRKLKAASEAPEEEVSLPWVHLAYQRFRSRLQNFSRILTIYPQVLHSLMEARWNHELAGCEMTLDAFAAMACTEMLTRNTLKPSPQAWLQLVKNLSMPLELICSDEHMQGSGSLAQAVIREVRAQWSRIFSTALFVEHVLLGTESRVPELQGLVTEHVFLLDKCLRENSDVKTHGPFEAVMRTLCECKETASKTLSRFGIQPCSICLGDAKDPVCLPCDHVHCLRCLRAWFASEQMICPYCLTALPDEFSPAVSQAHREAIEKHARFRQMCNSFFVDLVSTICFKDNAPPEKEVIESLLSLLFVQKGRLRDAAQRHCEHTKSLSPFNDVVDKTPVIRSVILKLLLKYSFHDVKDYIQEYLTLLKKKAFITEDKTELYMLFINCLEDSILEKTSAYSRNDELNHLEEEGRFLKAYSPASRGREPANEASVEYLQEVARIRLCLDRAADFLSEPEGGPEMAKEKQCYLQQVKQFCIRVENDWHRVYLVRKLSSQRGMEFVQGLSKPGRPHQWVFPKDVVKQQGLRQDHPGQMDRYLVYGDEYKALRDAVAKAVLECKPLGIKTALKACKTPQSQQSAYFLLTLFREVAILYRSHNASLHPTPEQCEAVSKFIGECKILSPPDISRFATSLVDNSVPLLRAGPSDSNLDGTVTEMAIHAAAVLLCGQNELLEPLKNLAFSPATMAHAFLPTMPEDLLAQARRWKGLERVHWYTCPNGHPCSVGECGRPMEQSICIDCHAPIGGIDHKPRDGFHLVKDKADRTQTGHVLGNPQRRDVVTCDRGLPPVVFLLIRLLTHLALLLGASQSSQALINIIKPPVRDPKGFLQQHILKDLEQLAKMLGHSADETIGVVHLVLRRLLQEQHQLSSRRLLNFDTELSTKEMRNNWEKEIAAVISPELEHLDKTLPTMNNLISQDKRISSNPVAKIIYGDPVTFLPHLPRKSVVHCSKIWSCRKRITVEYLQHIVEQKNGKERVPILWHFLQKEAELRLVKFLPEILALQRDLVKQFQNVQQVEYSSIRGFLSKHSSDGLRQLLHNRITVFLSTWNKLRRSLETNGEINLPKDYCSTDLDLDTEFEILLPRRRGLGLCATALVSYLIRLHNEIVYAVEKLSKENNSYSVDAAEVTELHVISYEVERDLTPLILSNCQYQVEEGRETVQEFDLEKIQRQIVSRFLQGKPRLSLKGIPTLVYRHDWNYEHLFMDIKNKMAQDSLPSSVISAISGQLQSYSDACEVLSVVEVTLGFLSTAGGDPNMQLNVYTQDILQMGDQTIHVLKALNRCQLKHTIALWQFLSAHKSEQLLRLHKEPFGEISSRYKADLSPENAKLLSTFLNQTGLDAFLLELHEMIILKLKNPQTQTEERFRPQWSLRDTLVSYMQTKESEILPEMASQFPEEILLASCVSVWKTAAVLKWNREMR

B1: recombinant His-tagged ABL1 (protein)
chain: SPNYDKWEMERTDITMKHKLGGGQYGEVYEGVWKKYSLTVAVKTLKEDTMEVEEFLKEAAVMKEIKHPNLVQLLGVCTREPPFYIITEFMTYGNLLDYLRECNRQEVNAVVLLYMATQISSAMEYLEKKNFIHRDLAARNCLVGENHLVKVADFGLSRLMTGDTYTAHAGAKFPIKWTAPESLAYNKFSIKSDVWAFGVLLWEIATYGMSPYPGIDLSQVYELLEKDYRMERPEGCPEKVYELMRACWQWNPSDRPSFAEIHQAFETMFQESSISDEVEKELGK
in vitro kinase assay (tyrosine phosphorylation) (3×-FLAG-RNF213^Y1275F): His-ABL1 phosphorylated WT-RNF213, but not RNF213^Y1275F | in vitro kinase assay (tyrosine phosphorylation) (3×-FLAG-RNF213): His-ABL1 phosphorylated WT-RNF213, but not RNF213^Y1275F in a time- and ABL1-concentration-dependent manner
